Data published in PMC3912074 (FEBS letters, 2013).

Legend:
BVU2420 = target: T1, BVU2420 (Phocaeicola vulgatus, UniProt A6L315); test: DTNB-coupled thioesterase assay, […] nm; assay type: biochemical; details: pH 7.5, 25 °C, 50 mM HEPES, 0.15 M KCl, 1 mM DTNB
T1 sequence (A6L315 1-135): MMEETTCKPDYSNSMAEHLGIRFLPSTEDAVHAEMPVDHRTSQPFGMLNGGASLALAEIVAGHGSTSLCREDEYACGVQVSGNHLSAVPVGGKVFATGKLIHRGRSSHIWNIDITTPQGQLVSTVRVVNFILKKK

PG1653 = target: T2, PG1653 (Porphyromonas gingivalis, UniProt Q7MU91); test: DTNB-coupled thioesterase assay, […] nm; assay type: biochemical; details: pH 7.5, 25 °C, 50 mM HEPES, 0.15 M KCl, 1 mM DTNB
T2 sequence (Q7MU91 1-407): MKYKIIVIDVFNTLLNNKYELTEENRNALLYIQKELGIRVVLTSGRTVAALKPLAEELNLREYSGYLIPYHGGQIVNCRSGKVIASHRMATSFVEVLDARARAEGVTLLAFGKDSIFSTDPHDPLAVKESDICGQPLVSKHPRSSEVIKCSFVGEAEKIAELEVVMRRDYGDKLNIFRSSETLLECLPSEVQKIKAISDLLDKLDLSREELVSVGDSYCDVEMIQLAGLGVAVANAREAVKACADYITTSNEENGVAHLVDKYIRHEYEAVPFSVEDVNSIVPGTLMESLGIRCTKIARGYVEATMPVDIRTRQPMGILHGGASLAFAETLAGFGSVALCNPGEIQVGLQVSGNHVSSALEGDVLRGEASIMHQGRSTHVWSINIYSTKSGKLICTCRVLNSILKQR

BF1314 = target: T3, BF1314 (Bacteroides fragilis, UniProt Q5LFS7); test: DTNB-coupled thioesterase assay, […] nm; assay type: biochemical; details: pH 7.5, 25 °C, 50 mM HEPES, 0.15 M KCl, 1 mM DTNB
T3 sequence (Q5LFS7 1-410): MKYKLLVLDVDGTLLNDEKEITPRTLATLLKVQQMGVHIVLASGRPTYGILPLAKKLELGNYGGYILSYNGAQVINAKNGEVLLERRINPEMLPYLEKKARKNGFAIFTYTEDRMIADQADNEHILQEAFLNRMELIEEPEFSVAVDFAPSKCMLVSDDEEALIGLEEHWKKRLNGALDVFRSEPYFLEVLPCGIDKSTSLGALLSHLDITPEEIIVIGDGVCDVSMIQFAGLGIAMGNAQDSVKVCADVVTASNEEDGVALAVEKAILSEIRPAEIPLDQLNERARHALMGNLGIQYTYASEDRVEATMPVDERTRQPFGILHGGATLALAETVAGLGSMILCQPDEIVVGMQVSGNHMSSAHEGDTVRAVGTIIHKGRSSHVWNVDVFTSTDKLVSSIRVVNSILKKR

purified protein [1] = substrate: CC(C)(COP(=O)(O)OP(=O)(O)OC[C@H]1O[C@@H](n2cnc3c(N)ncnc32)[C@H](O)[C@@H]1OP(=O)(O)O)[C@@H](O)C(=O)NCCC(=O)NCCSC(=O)c1ccccc1; test: purified protein; assay type: biochemical, Porphyromonas gingivalis; details: pH 7.5, 25 °C, 50 mM HEPES, 0.15 M KCl, 1 mM DTNB
purified protein [2] = substrate: CC(C)(COP(=O)(O)OP(=O)(O)OC[C@H]1O[C@@H](n2cnc3c(N)ncnc32)[C@H](O)[C@@H]1OP(=O)(O)O)[C@@H](O)C(=O)NCCC(=O)NCCSC(=O)Cc1cccc(O)c1; test: purified protein; assay type: biochemical, Porphyromonas gingivalis; details: pH 7.5, 25 °C, 50 mM HEPES, 0.15 M KCl, 1 mM DTNB
purified protein [3] = substrate: CC(C)(COP(=O)(O)OP(=O)(O)OC[C@H]1O[C@@H](n2cnc3c(N)ncnc32)[C@H](O)[C@@H]1OP(=O)(O)O)[C@@H](O)C(=O)NCCC(=O)NCCSC(=O)c1cc(O)c2ccccc2c1O; test: purified protein; assay type: biochemical, Porphyromonas gingivalis; details: pH 7.5, 25 °C, 50 mM HEPES, 0.15 M KCl, 1 mM DTNB
purified protein [4] = substrate: CC(C)(COP(=O)(O)OP(=O)(O)OC[C@H]1O[C@@H](n2cnc3c(N)ncnc32)[C@H](O)[C@@H]1OP(=O)(O)O)[C@@H](O)C(=O)NCCC(=O)NCCSC(=O)c1ccc(O)cc1; test: purified protein; assay type: biochemical, Porphyromonas gingivalis; details: pH 7.5, 25 °C, 50 mM HEPES, 0.15 M KCl, 1 mM DTNB
purified protein [5] = substrate: CC(C)(COP(=O)(O)OP(=O)(O)OC[C@H]1O[C@@H](n2cnc3c(N)ncnc32)[C@H](O)[C@@H]1OP(=O)(O)O)[C@@H](O)C(=O)NCCC(=O)NCCSC(=O)c1ccccc1; test: purified protein; assay type: biochemical, Bacteroides fragilis; details: pH 7.5, 25 °C, 50 mM HEPES, 0.15 M KCl, 1 mM DTNB
purified protein [6] = substrate: CC(C)(COP(=O)(O)OP(=O)(O)OC[C@H]1O[C@@H](n2cnc3c(N)ncnc32)[C@H](O)[C@@H]1OP(=O)(O)O)[C@@H](O)C(=O)NCCC(=O)NCCSC(=O)Cc1cccc(O)c1; test: purified protein; assay type: biochemical, Bacteroides fragilis; details: pH 7.5, 25 °C, 50 mM HEPES, 0.15 M KCl, 1 mM DTNB
purified protein [7] = substrate: CC(C)(COP(=O)(O)OP(=O)(O)OC[C@H]1O[C@@H](n2cnc3c(N)ncnc32)[C@H](O)[C@@H]1OP(=O)(O)O)[C@@H](O)C(=O)NCCC(=O)NCCSC(=O)c1cc(O)c2ccccc2c1O; test: purified protein; assay type: biochemical, Bacteroides fragilis; details: pH 7.5, 25 °C, 50 mM HEPES, 0.15 M KCl, 1 mM DTNB
purified protein [8] = substrate: NC(=O)OP(=O)(O)O; test: purified protein; assay type: biochemical, Bacteroides fragilis; details: pH 7.5, 25 °C, 1 mM MgCl2 (table; methods say 2 mM)
purified protein [9] = substrate: CC(C)(COP(=O)(O)OP(=O)(O)OC[C@H]1O[C@@H](n2cnc3c(N)ncnc32)[C@H](O)[C@@H]1OP(=O)(O)O)[C@@H](O)C(=O)NCCC(=O)NCCSC(=O)c1ccc(O)cc1; test: purified protein; assay type: biochemical, Bacteroides fragilis; details: pH 7.5, 25 °C, 50 mM HEPES, 0.15 M KCl, 1 mM DTNB
purified protein [10] = substrate: CC(=O)OP(=O)(O)O; test: purified protein; details: pH 7.5, 25 °C, 1 mM MgCl2 (table; methods say 2 mM)
purified protein [11] = substrate: O=P(O)(O)OC[C@H](O)CO; test: purified protein; details: pH 7.5, 25 °C, 1 mM MgCl2 (table; methods say 2 mM)
purified protein [12] = substrate: NC(=O)OP(=O)(O)O; test: purified protein; details: pH 7.5, 25 °C, 1 mM MgCl2 (table; methods say 2 mM)
purified protein [13] = substrate: O=P(O)(O)NP(=O)(O)O; test: purified protein; details: pH 7.5, 25 °C, 1 mM MgCl2 (table; methods say 2 mM)
purified protein [14] = substrate: CC(C)(COP(=O)(O)OP(=O)(O)OC[C@H]1O[C@@H](n2cnc3c(N)ncnc32)[C@H](O)[C@@H]1OP(=O)(O)O)[C@@H](O)C(=O)NCCC(=O)NCCSC(=O)c1ccccc1; test: purified protein; assay type: biochemical, Phocaeicola vulgatus; details: pH 7.5, 25 °C, 50 mM HEPES, 0.15 M KCl, 1 mM DTNB
purified protein [15] = substrate: CC(C)(COP(=O)(O)OP(=O)(O)OC[C@H]1O[C@@H](n2cnc3c(N)ncnc32)[C@H](O)[C@@H]1OP(=O)(O)O)[C@@H](O)C(=O)NCCC(=O)NCCSC(=O)Cc1cccc(O)c1; test: purified protein; assay type: biochemical, Phocaeicola vulgatus; details: pH 7.5, 25 °C, 50 mM HEPES, 0.15 M KCl, 1 mM DTNB
purified protein [16] = substrate: CC(C)(COP(=O)(O)OP(=O)(O)OC[C@H]1O[C@@H](n2cnc3c(N)ncnc32)[C@H](O)[C@@H]1OP(=O)(O)O)[C@@H](O)C(=O)NCCC(=O)NCCSC(=O)c1cc(O)c2ccccc2c1O; test: purified protein; assay type: biochemical, Phocaeicola vulgatus; details: pH 7.5, 25 °C, 50 mM HEPES, 0.15 M KCl, 1 mM DTNB
purified protein [17] = substrate: CC(C)(COP(=O)(O)OP(=O)(O)OC[C@H]1O[C@@H](n2cnc3c(N)ncnc32)[C@H](O)[C@@H]1OP(=O)(O)O)[C@@H](O)C(=O)NCCC(=O)NCCSC(=O)c1ccc(O)cc1; test: purified protein; assay type: biochemical, Phocaeicola vulgatus; details: pH 7.5, 25 °C, 50 mM HEPES, 0.15 M KCl, 1 mM DTNB

## napthoyl-CoA
BVU2420
  Km: 180 µM
PG1653
  Km: 170 µM
BF1314
  Km: 230 µM

B1: PG1653 (Porphyromonas gingivalis W83) (protein)
chain: MKYKIIVIDVFNTLLNNKYELTEENRNALLYIQKELGIRVVLTSGRTVAALKPLAEELNLREYSGYLIPYHGGQIVNCRSGKVIASHRMATSFVEVLDARARAEGVTLLAFGKDSIFSTDPHDPLAVKESDICGQPLVSKHPRSSEVIKCSFVGEAEKIAELEVVMRRDYGDKLNIFRSSETLLECLPSEVQKIKAISDLLDKLDLSREELVSVGDSYCDVEMIQLAGLGVAVANAREAVKACADYITTSNEENGVAHLVDKYIRHEYEAVPFSVEDVNSIVPGTLMESLGIRCTKIARGYVEATMPVDIRTRQPMGILHGGASLAFAETLAGFGSVALCNPGEIQVGLQVSGNHVSSALEGDVLRGEASIMHQGRSTHVWSINIYSTKSGKLICTCRVLNSILKQR
Purified protein [1]
  Km: (5.8 ± 0.5) × 10^1 μM
  kcat: 0.03 ± 0.001 s⁻¹
Purified protein [2]
  Km: (1.7 ± 0.3) × 10^2 μM
  kcat: 0.31 ± 0.02 s⁻¹
Purified protein [3]
  Km: 4.0 ± 0.3 µM
  kcat: 10 ± 1 s⁻¹
Purified protein [4]
  Km: (8.0 ± 0.6) × 10^2 μM
  kcat: 4.6 ± 0.1 s⁻¹

B2: BF1314 (Bacteroides fragilis NCTC 9343) (protein)
chain: MKYKLLVLDVDGTLLNDEKEITPRTLATLLKVQQMGVHIVLASGRPTYGILPLAKKLELGNYGGYILSYNGAQVINAKNGEVLLERRINPEMLPYLEKKARKNGFAIFTYTEDRMIADQADNEHILQEAFLNRMELIEEPEFSVAVDFAPSKCMLVSDDEEALIGLEEHWKKRLNGALDVFRSEPYFLEVLPCGIDKSTSLGALLSHLDITPEEIIVIGDGVCDVSMIQFAGLGIAMGNAQDSVKVCADVVTASNEEDGVALAVEKAILSEIRPAEIPLDQLNERARHALMGNLGIQYTYASEDRVEATMPVDERTRQPFGILHGGATLALAETVAGLGSMILCQPDEIVVGMQVSGNHMSSAHEGDTVRAVGTIIHKGRSSHVWNVDVFTSTDKLVSSIRVVNSILKKR
Purified protein [5]
  Km: (8.4 ± 0.8) × 10^1 μM
  kcat: 0.024 ± 0.002 s⁻¹
Purified protein [6]
  Km: (4.6 ± 0.4) × 10^1 μM
  kcat: 0.19 ± 0.01 s⁻¹
Purified protein [7]
  Km: 7.0 ± 0.5 µM
  kcat: 12 ± 1 s⁻¹
Purified protein [8]
  Km: 0.44 ± 0.03 mM
  kcat: 0.0217 ± 0.00167 s⁻¹
  kcat/Km: 54 M⁻¹ s⁻¹
Purified protein [9]
  Km: (2.3 ± 0.2) × 10^2 μM
  kcat: 1.1 ± 0.1 s⁻¹

B3: BF1314-HAD Domain (Bacteroides fragilis NCTC 9343) (protein)
chain: MKYKLLVLDVDGTLLNDEKEITPRTLATLLKVQQMGVHIVLASGRPTYGILPLAKKLELGNYGGYILSYNGAQVINAKNGEVLLERRINPEMLPYLEKKARKNGFAIFTYTEDRMIADQADNEHILQEAFLNRMELIEEPEFSVAVDFAPSKCMLVSDDEEALIGLEEHWKKRLNGALDVFRSEPYFLEVLPCGIDKSTSLGALLSHLDITPEEIIVIGDGVCDVSMIQFAGLGIAMGNAQDSVKVCADVVTASNEEDGVALAVEKAILSEIRPAEIPLDQLNERARHAL
Purified protein [10]
  Km: 0.87 ± 0.06 mM
  kcat: 0.02 ± 0.00167 s⁻¹
  kcat/Km: 23 M⁻¹ s⁻¹
Purified protein [11]
  Km: 0.063 ± 0.002 mM
  kcat: 0.011 ± 0.001 s⁻¹
  kcat/Km: 170 M⁻¹ s⁻¹
Purified protein [12]
  Km: 0.97 ± 0.08 mM
  kcat: 0.04167 ± 0.000333 s⁻¹
  kcat/Km: 42 M⁻¹ s⁻¹
Purified protein [13]
  Km: 7.4 ± 0.5 mM
  kcat: 0.383 ± 0.0167 s⁻¹
  kcat/Km: 51 M⁻¹ s⁻¹

B4: BVU2420 (Phocaeicola vulgatus ATCC 8482) (protein)
chain: MMEETTCKPDYSNSMAEHLGIRFLPSTEDAVHAEMPVDHRTSQPFGMLNGGASLALAEIVAGHGSTSLCREDEYACGVQVSGNHLSAVPVGGKVFATGKLIHRGRSSHIWNIDITTPQGQLVSTVRVVNFILKKK
Purified protein [14]
  Km: (3.1 ± 0.4) × 10^1 μM
  kcat: 0.028 ± 0.001 s⁻¹
Purified protein [15]
  Km: (8.1 ± 0.6) × 10^2 μM
  kcat: 0.034 ± 0.001 s⁻¹
Purified protein [16]
  Km: (1.5 ± 0.1) × 10^1 μM
  kcat: 13 ± 1 s⁻¹
Purified protein [17]
  Km: (3.3 ± 0.2) × 10^1 μM
  kcat: 1.2 ± 0.1 s⁻¹
